Results published in the supplement of paper PMC9170038.

Test system: MS2 coat protein
Assay: apparent KD of MS2 coat protein; designed switch direction (-1 OFF switch, 1 ON switch): 1; higher = weaker reporter binding
Method in brief: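 Stalled E. coli RNA polymerase transcribed designed RNA switches on Illumina chips, which were then titrated with SNAP-549-labelled MS2 coat protein, doubling from 0.7 or 1.5 nM to 3 µM. Steps lasted from 0.8–1.5 h at the lowest concentration to 10–20 min at the highest. The apparent KD is each design's median over clusters of curve-fitted normalised fluorescence.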

[1] = input ligand: microRNA oligo, concentration not stated
[2] = Eterna round: R95, input ligand: FMN 200 uM
[3] = Eterna round: R95, input ligand: microRNA oligo, concentration not stated
[4] = Eterna round: R95, input ligand: none

Sequence: AUGCCAAAUGGAGGAUAUGGAGCCUUAUUGGCUCCAGAAGGUCAAACAUGAGGAUCACCCAUGUGGCAGUGGUCUAAUGACCAC [Eli NG1ss - 45] (Eterna round: R96, puzzle: Same State NG 1)
- apparent KD of MS2 coat protein (input ligand: FMN 200 uM): 110 nM
- apparent KD of MS2 coat protein [1]: 192 nM
- apparent KD of MS2 coat protein (input ligand: none): 368 nM

Sequence: AAGAAAGACGCAGGAUAUCAGUGCAGACCGCACUGAGAAGGGUGAGACAUGAGGAUCACCCAUGUAACACGACAAAACGUCGUG [Anritiat] (Eterna round: R96, puzzle: Same State NG 1)
- apparent KD of MS2 coat protein (input ligand: FMN 200 uM): 111 nM
- apparent KD of MS2 coat protein [1]: 118 nM
- apparent KD of MS2 coat protein (input ligand: none): 13.9 nM

Sequence: UGGCUCAGACUAGGAUAUAUGCGAUCACAUGAGGAUCACCCAUGUCUCGAGCUUCGGCUCGAGGCAUAGAAGGAGUCUGAGCCA [SSNG2/4-D2] (Eterna round: R96, puzzle: Same State NG 2)
- apparent KD of MS2 coat protein (input ligand: FMN 200 uM): 14.4 nM
- apparent KD of MS2 coat protein [1]: 34.6 nM
- apparent KD of MS2 coat protein (input ligand: none): 56.5 nM

Sequence: GCGAGCGUACUUGCUACAUGAGGAUCACCCAUGUUUUAUGGACAGGAUAUGGUACCGUUUCGGUACCAGAAGGGUUCACAUGUG [JL SSNG3 3.82] (Eterna round: R96, puzzle: Same State NG 3)
- apparent KD of MS2 coat protein (input ligand: FMN 200 uM): 133 nM
- apparent KD of MS2 coat protein [1]: 186 nM
- apparent KD of MS2 coat protein (input ligand: none): 254 nM

Sequence: AUUAAACAUGAGGAUCACCCAUGUCAACAAAGUCGAGGAUAUGGGCAAAUAAAAUAAGAUCCAGAAGGCGAAUAAU [salish99_ss1_r3_067] (puzzle: Same State 1)
- apparent KD of MS2 coat protein [2]: 55.7 nM
- apparent KD of MS2 coat protein [3]: 16.8 nM
- apparent KD of MS2 coat protein [4]: 19.5 nM

Sequence: GGUAAGAAUUAAGGAUAUUGAUUACAUAUGUUUAACAUGAGGAUCACCCAUGUGGGUUGCGGUAUCGAGAAGGUAAAAUAAUAG [Mat - same State NG 2 - JL mod - D83] (Eterna round: R96, puzzle: Same State NG 2)
- apparent KD of MS2 coat protein (input ligand: FMN 200 uM): 145 nM
- apparent KD of MS2 coat protein [1]: 170 nM
- apparent KD of MS2 coat protein (input ligand: none): 170 nM

Sequence: AAACUACGUGCACAGGAUAUACGUUCCUAUACAUGAGGAUCACCCAUGUACCAACUGAAAAGGAAGUAGAAGGGUGUCCGUAAAC [Erbibearza] (puzzle: Same State 2)
- apparent KD of MS2 coat protein [2]: 17.7 nM
- apparent KD of MS2 coat protein [3]: 80.3 nM
- apparent KD of MS2 coat protein [4]: 53.7 nM

Sequence: CCGUAGAUGGGACAGGAUAUGACUGUCGUCACAUGAGGAUCACCCAUGUCCCGGCAAUGCCACCGUUAGAAGGGUCCCGUCUCGG [Tiquiser] (puzzle: Same State 2)
- apparent KD of MS2 coat protein [3]: 12.2 nM

Sequence: AGCUAUUAAUCAGGAUAUAGUGACAUGAGGAUCACCCAUGUAUUAAUGAUGAAAUGUGGUCGCCGCUAGAAGGGAUUACUAACA [SameState NG2 #44] (Eterna round: R96, puzzle: Same State NG 2)
- apparent KD of MS2 coat protein (input ligand: FMN 200 uM): 67.1 nM
- apparent KD of MS2 coat protein [1]: 22 nM
- apparent KD of MS2 coat protein (input ligand: none): 30.1 nM

Sequence: ACAUGAGAGAUAGGAUAUCUUGUACCUACAUGUGACAUGAGGAUCACCCAUGUGGUAAGUAUGAGGGAGAAGGAUCAGAUAUGU [Equivalence 42 - Jieux - Same State NG 2] (Eterna round: R96, puzzle: Same State NG 2)
- apparent KD of MS2 coat protein (input ligand: FMN 200 uM): 29.6 nM
- apparent KD of MS2 coat protein [1]: 26.4 nM
- apparent KD of MS2 coat protein (input ligand: none): 45.2 nM

Sequence: UAUCCAUAGAUAGGAUAUUAGAGAACAUGAGGAUCACCCAUGUUUGGCUUGGUUUUAAGCUAAUCUAAGAAGGAUCUUGAUGAA [SameState NG2 #9] (Eterna round: R96, puzzle: Same State NG 2)
- apparent KD of MS2 coat protein (input ligand: FMN 200 uM): 13.3 nM
- apparent KD of MS2 coat protein [1]: 22.9 nM
- apparent KD of MS2 coat protein (input ligand: none): 36.5 nM

Sequence: GGGAGAGACGUAGGAUAUGGAAGAAGAUAGAGACUAGAAGGGUGAACAUGAGAAUCGAAGUGUAAAGUGAGAUGAGGUGGGAGA [iteri-1] (Eterna round: R96, puzzle: Same State NG 1)
- apparent KD of MS2 coat protein (input ligand: FMN 200 uM): 26.5 nM
- apparent KD of MS2 coat protein [1]: 16.9 nM
- apparent KD of MS2 coat protein (input ligand: none): 36.9 nM

Sequence: GAGAGAGGGUGAGGAUAUUUAGUGAUAAUGAUGGGAGAAGGCACAGACAUGAGGAUCACCCAUGUGGGAAUAAUCCAGAGAGAG [Parity 10 - Jieux - Same State NG 1] (Eterna round: R96, puzzle: Same State NG 1)
- apparent KD of MS2 coat protein (input ligand: FMN 200 uM): 145 nM
- apparent KD of MS2 coat protein [1]: 92.7 nM
- apparent KD of MS2 coat protein (input ligand: none): 232 nM

Sequence: AACAGUCGACGAGGAUAUGGACGGACAGGUUUGCCUGUGCGGCUCACAUGAGGAUCACCCAUGUUCUAGAAGGCGUCACUGUGA [Matidia] (Eterna round: R96, puzzle: Same State NG 2)
- apparent KD of MS2 coat protein (input ligand: FMN 200 uM): 15.5 nM
- apparent KD of MS2 coat protein [1]: 79.2 nM
- apparent KD of MS2 coat protein (input ligand: none): 80.5 nM

Sequence: UUGGUGUAGAUACAGGAUAUGUUGCUUGUAACAUGAGGAUCACCCAUGUAUCUAUGAGAUUAAAUGCAGAAGGGUGCACAUCACU [salish99_ss2_r3_089] (puzzle: Same State 2)
- apparent KD of MS2 coat protein [2]: 390 nM
- apparent KD of MS2 coat protein [3]: 582 nM
- apparent KD of MS2 coat protein [4]: 1020 nM

Sequence: GGUACAUGAGGAUCACCCAUGUCAAAGGCACCGUGCAGACUGGAGGAUAUCACAGCAGAAAGCUGUGAGAAGGCCGUGUAAGCG [Eternabot solution 17] (Eterna round: R96, puzzle: Same State NG 3)
- apparent KD of MS2 coat protein (input ligand: FMN 200 uM): 17.4 nM
- apparent KD of MS2 coat protein [1]: 24.6 nM
- apparent KD of MS2 coat protein (input ligand: none): 42.9 nM

Sequence: GGAUGAUAGACAGGAUAUUGAUUGUAAUUAUGUCAAGAAGGGUCUUUGAUUUAAACGACCAGUUACAUGAGGAUCACCCAUGUU [JR_SSNG1_Sub029] (Eterna round: R96, puzzle: Same State NG 1)
- apparent KD of MS2 coat protein [1]: 24.1 nM

Sequence: GUGGUGGGUUGAGGAUAUUGGUUGCAUAUGUUUAACAUGAGGAUCACCCAUGUGGGUUGCGGUUUCGAGAAGGUAGGUUGCUGG [salish99_SSNG2_r04_045bad] (Eterna round: R96, puzzle: Same State NG 2)
- apparent KD of MS2 coat protein (input ligand: FMN 200 uM): 112 nM
- apparent KD of MS2 coat protein [1]: 106 nM
- apparent KD of MS2 coat protein (input ligand: none): 112 nM

Sequence: CUGAGCGAUCAAGGAUAUCACGUCGUUUAGACGUGAGAAGGUGAUCCAUACAUGAGGAUCACCCAUGUAUAACAUGAAGCUCAG [SSNG1/8-A3] (Eterna round: R96, puzzle: Same State NG 1)
- apparent KD of MS2 coat protein (input ligand: FMN 200 uM): 646 nM
- apparent KD of MS2 coat protein [1]: 57 nM
- apparent KD of MS2 coat protein (input ligand: none): 1540 nM

Sequence: CUUGAUACACAUGAGGAUCACCCAUGUAUCAAGCUUUUUGCUCGUGUUAUUAUUUCCUUUAUUAGGAAUAUUAGGAA [rhiju-sequester-tail] (puzzle: Sensor for hsa-mir-208a version 2)
- apparent KD of MS2 coat protein [2]: 24.9 nM
- apparent KD of MS2 coat protein [3]: 14.4 nM
- apparent KD of MS2 coat protein [4]: 23.7 nM

Sequence: UUUAGUUGCGGGCAGGAUAUGUAUUAAAAUACAUGAGGAUCACCCAUGUACGGGUAUAACACCCGACAGAAGGGCCAAUCGCGAC [Laonerce - 4] (puzzle: Same State 2)
- apparent KD of MS2 coat protein [2]: 16.8 nM
- apparent KD of MS2 coat protein [3]: 62.6 nM
- apparent KD of MS2 coat protein [4]: 91.5 nM

Sequence: GCUACCAAAGAAGCCAACAUGAGGAUCACCCAUGUAUGUUGGUAGGAUAUCGUUUGCAAAGCAAACGAGAAGGGCUAAGGUAGC [Mat - Same State NG 3 - JL Mod - D77] (Eterna round: R96, puzzle: Same State NG 3)
- apparent KD of MS2 coat protein (input ligand: FMN 200 uM): 138 nM
- apparent KD of MS2 coat protein [1]: 99.2 nM
- apparent KD of MS2 coat protein (input ligand: none): 107 nM

Sequence: AGUCCAGCCUGAGCUGGACUGAAGCAUGUACAUGAGGAUCACCCAUGUUCAUGUGCAGGCUUUUUGCUCGUCUUAUG [JL-shm-2.01 JL mod] (puzzle: Sensor for hsa-mir-208a)
- apparent KD of MS2 coat protein [2]: 84.7 nM
- apparent KD of MS2 coat protein [3]: 13.5 nM
- apparent KD of MS2 coat protein [4]: 108 nM
